These results are taken from US20210363269A1 (ALX ONCOLOGY, published 2021).

In experiment [1] the target is T1, C57BL/6 mouse SIRP-α D1 domain (mouse (C57BL/6 strain), UniProt P97797 32-148).
T1 sequence: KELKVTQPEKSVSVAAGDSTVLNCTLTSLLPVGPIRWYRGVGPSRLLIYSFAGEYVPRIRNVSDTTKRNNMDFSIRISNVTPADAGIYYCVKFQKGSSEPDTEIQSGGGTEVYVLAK
The experiment is described as follows: SPR. Summed up:
(§1)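 scFv-Fc antibody clones were captured from pre-filtered culture media onto anti-human IgG Fc, amine-coupled at about 4000 RU on a GLC chip in a ProteOn XPR36 instrument. SIRP analytes were passed over in PBS pH 7.4 with 0.01% Tween-20 at 25° C, and responses were double-referenced against interspot and buffer-blank signals. Curves were fitted to a 1:1 Langmuir model. Dissociation rate constants (koff) were taken from those fits.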
Background: SPR reads the build-up and loss of mass on a sensor chip optically.

The target in experiment [2] is T2, cynomolgus SIRP-α D1 domain (cyno1) (cynomolgus monkey, UniProt Q5TFQ8 30-148 (human entry), limits assumed).
T2 chain: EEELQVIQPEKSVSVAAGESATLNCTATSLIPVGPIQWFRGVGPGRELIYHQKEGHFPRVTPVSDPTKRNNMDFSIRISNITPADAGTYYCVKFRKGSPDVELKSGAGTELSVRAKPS
Nature of the experiment: SPR. Summed up:
as §1

Experiment [3] addresses T3, human SIRPγ isoform 1 (human, UniProt Q9P1W8 29-147).
T3 construct: also called SIRPg; sirpg
Nature of the experiment: SPR. The gist of the method:
as §1

Experiment [4] concerns the target T4, high affinity SIRP-α D1 variant CV1-3.
T4 chain: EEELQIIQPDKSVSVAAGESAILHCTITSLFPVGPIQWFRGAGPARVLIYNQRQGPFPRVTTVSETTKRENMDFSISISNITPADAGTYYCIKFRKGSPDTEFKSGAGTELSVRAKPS
The experiment is described as follows: SPR, Langmuir fit. The gist of the method:
as §1

Experiment [5] has as its target T5, human SIRP-α v2 D1 domain (human).
T5 construct: also called human v2
The experiment is described as follows: SPR, Langmuir fit. The gist of the method: as §1
T5 sequence (chain, as listed by the source limits assumed): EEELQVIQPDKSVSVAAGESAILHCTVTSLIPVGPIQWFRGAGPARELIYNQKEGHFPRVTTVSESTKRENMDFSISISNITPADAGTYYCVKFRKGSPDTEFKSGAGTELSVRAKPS

Experiment [6] has as its target T6, human SIRP-α v1 D1 domain (human, UniProt P78324 31-149).
T6 construct: also called human v1
The experiment is described as follows: SPR, Langmuir fit. The gist of the method: as §1
T6 sequence (P78324 31-149 limits assumed): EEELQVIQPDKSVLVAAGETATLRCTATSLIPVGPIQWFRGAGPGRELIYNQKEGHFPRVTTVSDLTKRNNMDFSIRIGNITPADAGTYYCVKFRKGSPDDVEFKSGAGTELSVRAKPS

Experiment [7] deals with T7, human SIRPβ isoform 1 (human, UniProt O00241 30-148).
T7 construct: also called SIRPb; sirpb1
T7 sequence (O00241 30-148 limits assumed): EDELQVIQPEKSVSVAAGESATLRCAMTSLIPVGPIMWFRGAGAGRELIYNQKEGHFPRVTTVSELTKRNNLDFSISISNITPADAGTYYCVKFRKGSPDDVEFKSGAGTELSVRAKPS
Nature of the experiment: SPR, Langmuir fit. Summed up: as §1

Experiment [8] concerns the target T8, human SIRP-α v1 D1 domain (human, UniProt P78324 31-149).
T8 construct: biotinylated and captured on avidin in the ELISA; also called human v1
The experiment is described as follows: SPR, antibody immobilised on GLC chip. The gist of the method: (§2)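 SIRP analytes were run over antibody surfaces in PBS pH 7.4 with 0.01% Tween-20 at 25° C, using one-shot injections at 100, 33, 11, 3.7, 1.2 and 0 nM. The antibodies, purified by Protein A, had been amine-coupled (~1000 RU) to a GLC chip of a ProteOn XPR36 biosensor from an 80 nM solution in 10 mM sodium acetate pH 4.5. Association lasted 90 s at a flow of 100 μL/min, and dissociation lasted 1200 s. KD equals kd/ka, obtained by fitting double-referenced data globally to a Langmuir model.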
T8 sequence (P78324 31-149 limits assumed): as the sequence (P78324 31-149 limits assumed) above

The target in experiment [9] is T9, human SIRP-α v2 D1 domain (human).
T9 construct: biotinylated and captured on avidin in the ELISA; also called human v2
The experiment is described as follows: SPR, antibody immobilised on GLC chip. Summed up: as §2

The target of experiment [10] is T10, mouse 129 SIRP-α D1 domain (mouse (129 strain), UniProt P97797 32-150).
T10 construct: also called m129
T10 chain: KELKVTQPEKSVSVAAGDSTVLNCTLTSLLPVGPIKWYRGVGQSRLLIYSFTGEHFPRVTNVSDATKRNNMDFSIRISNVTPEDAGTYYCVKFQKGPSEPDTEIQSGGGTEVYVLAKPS
Nature of the experiment: SPR. The gist of the method:
as §1

Experiment [11] has as its target T7, human SIRPβ isoform 1. The experiment is described as follows: SPR. The gist of the method:
as §1

Experiment [12] addresses T11, NOD mouse SIRP-α D1 domain (mouse (NOD strain)).
T11 chain: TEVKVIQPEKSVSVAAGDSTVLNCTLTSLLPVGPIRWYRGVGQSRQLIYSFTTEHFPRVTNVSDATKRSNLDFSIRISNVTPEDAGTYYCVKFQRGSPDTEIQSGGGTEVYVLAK
Nature of the experiment: SPR. The gist of the method:
as §1

The target of experiment [13] is T2, cynomolgus SIRP-α D1 domain (cyno1). The experiment is described as follows: SPR, Langmuir fit. Summed up:
as §1

Experiment [14] addresses T12, cynomolgus SIRP-α D1 domain (cyno2) (cynomolgus monkey, UniProt Q5TFQ8 30-148 (human entry), limits assumed).
T12 chain: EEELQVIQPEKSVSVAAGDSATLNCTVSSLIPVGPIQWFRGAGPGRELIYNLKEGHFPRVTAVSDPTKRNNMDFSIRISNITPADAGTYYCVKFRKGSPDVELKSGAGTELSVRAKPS
The experiment is described as follows: SPR, Langmuir fit. Summed up: as §1

In experiment [15] the target is T3, human SIRPγ isoform 1. The experiment is described as follows: SPR, Langmuir fit. Summed up: as §1

As usually defined, the koff is the rate constant with which the complex falls apart.

T3 sequence (Q9P1W8 29-147 limits assumed): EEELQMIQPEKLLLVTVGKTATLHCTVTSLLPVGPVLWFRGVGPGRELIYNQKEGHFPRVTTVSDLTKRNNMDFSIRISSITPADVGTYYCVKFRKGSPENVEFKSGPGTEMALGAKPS

B1: S209 (scFv, V domains shown)
VH: DVQLVESGGAVVRPGESLRLSCKASGFTFTNFAMSWVRQAPGEGLEWVSGISGSDDTTYYADSVKGRFTISRDNSESTLYLQMNSLRAEDTAVYYCVKDSTVSWNTFFDYWGLGTLVTVSS
VL: ALTQPASVSANLGGTVKITCSGGYGSDDGSSSYYGWYQQKSPGSAPVILIYWDDKRPSDIPSRFSGSTSGSTTTLTITGVQAEDEAVYFCGTYDTSSGAIFGAGTTLTVL
As for B1, the binding result (in experiment [1]; in [2]; in the experiment with human SIRPγ isoform 1 [3]) was “no binding (tested: Koff > 5 × 10^3 (legend))” throughout. The koff in experiment [4] turned out to be 0.00245 s⁻¹; in experiment [5] it was 0.00401 s⁻¹; in experiment [6], 0.000659 s⁻¹; with human SIRPβ isoform 1 [7], 6.54e-05 s⁻¹.

B2: 119 wt/wt_M34L (antibody, human IgG1, V domains shown)
VH: DVQLLESGGGVVQPGGSLRLSCAASGFSFSNFALTWVRQAPGEGLEWVSTIGSGDTYYADSVKGRFTISRDNSKNTLYLQMNSLRAEDTAVYYCAKDSTVSWSGDFFDYWGLGTLVTVSS
VL: EIVLTQSPATLSVSPGERATFSCRASQNVKNDLAWYQQRPGQAPRLLIYAARIRETGIPERFSGSGSGTEFTLTITSLQSEDFAVYYCQQYYDWPPFTFGGGTKVEIK
notes: human IgG1 with L234A, L235A, G237A, N297A
Turning to B2, the binding result in experiment [8] and in [9] was “binds” each time.

B3: 135 wt/wt_M34V (antibody, human IgG1, V domains shown)
VH: DVQLVESGGGVVRPGESLRLSCAASGFSFSIYAVSWVRQAPGEGLEWVSTIGADDTYYADSVKGRFTISRDNSKNTLYLQMNSLRAEDTAVYYCAKDSTVGWSGDFFDYWGLGTLVTVSS
VL: EIVLTQSPATLSVSPGERVTFSCRASQNVRSDIAWYQQKPGQAPRLLIYAASSRDTGIPDRFSGSGSGTDFTLTISSLQSEDFGVYYCQQYYDWPPFTFGGGTKVEIK
notes: as for B2
As for B3, the binding result in experiment [8] and in experiment [9] was “binds” throughout.

B4: 135 wt/wt_M34L (antibody, human IgG1, V domains shown)
VH: DVQLVESGGGVVRPGESLRLSCAASGFSFSIYALSWVRQAPGEGLEWVSTIGADDTYYADSVKGRFTISRDNSKNTLYLQMNSLRAEDTAVYYCAKDSTVGWSGDFFDYWGLGTLVTVSS
VL: EIVLTQSPATLSVSPGERVTFSCRASQNVRSDIAWYQQKPGQAPRLLIYAASSRDTGIPDRFSGSGSGTDFTLTISSLQSEDFGVYYCQQYYDWPPFTFGGGTKVEIK
notes: as for B2
With B4, the binding result in [8] and in experiment [9] was “binds” in each case.

B5: S173 (scFv, V domains shown)
VH: DVQLVESGGGVVRPGESLRLSCAASGFAFSDHDMSWVRQGPGEGLEWVAGISLRGGVTWYADSVKGRFTISRDNSKNTLYLRLFSLRTEDTAIYYCARESWNTFFDYWGLGTLVTVSS
VL: EIVLTQSPGTLSLSPGETATLSCRASQNVRSNLAWYQQKPGQAPRLLIYDASSRATGIPDRFSGSGSGTDFTLTISSLQSEDFAVYYCQQYGNGPPLTFGGGTKVEIK
For B5, the binding result (in [1]; in experiment [2]; in the experiment with human SIRPγ isoform 1 [3]; in experiment [10]; with human SIRPβ isoform 1 [11]) was “no binding (tested: Koff > 5 × 10^3 (legend))” each time. The off-rate (koff) in experiment [4] worked out at 0.00137 s⁻¹; in experiment [5], 0.00504 s⁻¹; in experiment [6], 0.00112 s⁻¹.

B6: S174 (scFv, V domains shown)
VH: DVQLVESGGGVVRPGESLRLSCAASGFTFSDHDMSWVRQGPGEGLEWVAGISLRGGVTWYADSVKGRFTISRDNSKNTLYLRLFSLRTEDTAIYYCARESWNTFFDYWGLGTLVTVSS
VL: EIVLTQSPGTLSLSPGETATLSCRASQNVRSNLAWYQQKPGQAPRLLIYDASSRATGIPDRFSGSGSGTDFTLTISSLQSEDFAVYYCQQYGNGPPLTFGGGTKVEIK
Turning to B6, the binding result (in experiment [1]; in experiment [2]; in the experiment with human SIRPγ isoform 1 [3]; in [10]; with human SIRPβ isoform 1 [11]) was “no binding (tested: Koff > 5 × 10^3 (legend))” each time. Also, the off-rate (koff) came out at 0.00189 s⁻¹ in experiment [4], 0.00399 s⁻¹ in experiment [5] and 0.00143 s⁻¹ in experiment [6].

B7: S191 (scFv, V domains shown)
VH: DVQLVESGGGVVRPGESLRLSCAASGFSFSSYAMNWVRQAPGEGLEWVSRINSGGGGTDYAESVKGRFTISRDNSENTLYLQMNSLRAEDTAVYYCAKQYDWNGFFDYWGLGALVTVSS
VL: ETVLTQSPATLSVSPGERATLSCRASQTVGSKLAWHQQKPGQAPRLLIYDATNRATGIPDRFSGSGSGTDFTLTISGLQTEDSAVYYCQQYYYWPPYRFGGGTKVEIK
notes: also called clone 191
Take B7: the binding result in experiment [1], in [10] and in experiment [12] was “no binding (tested: Koff > 5 × 10^3 (legend))” each time. Further, the koff in experiment [4] amounted to 0.000295 s⁻¹; in experiment [13] it was 5.54e-05 s⁻¹; in [5], 3.53e-05 s⁻¹; in experiment [6] it was 6.67e-05 s⁻¹; in experiment [14], 1.38e-05 s⁻¹; with human SIRPβ isoform 1 [7], 1.01e-05 s⁻¹.

B8: S198 (scFv, V domains shown)
VH: DVQLVESGGGVVRPGESLRLSCAASGFSFSSHAMNWVRQAPGEGLEWVSRINSGGGGTDYAESVKGRFTISRDNSENTLYLQMNSLRAEDTAVYYCAKQYDWNGFFDYWGLGALVTVSS
VL: ETVLTQSPATLSVSPGERATLSCRASQTVGSKLAWHQQKPGQAPRLLIYDATNRATGIPDRFSGSGSGTDFTLTISSLQTEDSAVYYCQQYYYWPPYRFGGGTKVEIK
B8: the binding result in experiment [1], in experiment [10] and in experiment [12] was “no binding (tested: Koff > 5 × 10^3 (legend))” throughout. Also, the dissociation rate constant (koff) in [4] was found to be 0.000787 s⁻¹; in experiment [13], 8.34e-05 s⁻¹; in [5] it was 4.95e-05 s⁻¹; in experiment [6] it was 3.67e-05 s⁻¹; in experiment [14], 7.73e-05 s⁻¹; with human SIRPβ isoform 1 [7] it was 4.72e-05 s⁻¹.

B9: S132 (scFv, V domains shown)
VH: DVQLVESGGGVVRPGESLRLSCAASGFSFRSYAMNWVRQAPGEGLEWVSRINSGGGGTDYADSVKGRFTISRDNSKNTLYLQMNSLRAEDTAVYYCAKQYDWNSFFDYWGLGALVTVSS
VL: ETVLTQSPATLSVSPGERATLSCRASQTVGSKLAWHQQKPGQAPRLLIYDASNRATGIPDRFSGSGSGTDFTLTISSPQTEDSAVYYCQQYYYWPPYRFGGGTKVEIK
Regarding B9, the binding result in [1], in experiment [10] and in [12] was “no binding (tested: Koff > 5 × 10^3 (legend))” throughout. Moreover, the koff in experiment [4] amounted to 7.95e-05 s⁻¹; in experiment [13], 4.28e-05 s⁻¹; in experiment [5], 2.06e-05 s⁻¹; in experiment [6], 3.34e-05 s⁻¹; with human SIRPγ isoform 1 [15], 1.05e-05 s⁻¹; in experiment [14], 7.12e-05 s⁻¹. Besides, the koff in the experiment with human SIRPβ isoform 1 [7] was 1.01e-05 s⁻¹.
